Source: paper PMC3665746

Target: palm-Mover-flag (not stated | rat)
Experiment: plasma membrane recruitment assay in cells (immunofluorescence, line scans); Vero cells co-transfected with palm-Mover-flag and a myc- or GFP-tagged Mover construct; fixed after 24 h, stained against the tags; a cell is positive for recruitment when the fluorescence profiles co-peak in the cell periphery

percent of cells showing recruitment (percent of cells) | Substance
71 | GFP-Mover 34–266 (domain or fragment)
86 | GFP-Mover 52–266 (domain or fragment)

The next lines start with the substance.

Substance | percent of cells showing recruitment (percent of cells)
GFP-Mover (natural protein) | 94
Mover-GFP (natural protein) | 61
Mover-myc (natural protein) | 94
